# Laboratory results reported in IntAct's records for PubMed 23340509.
# B1: Protein Tob2 (Homo sapiens), Q14106 (parent)
# chain: MQLEIKVALNFIISYLYNKLPRRRADLFGEELERLLKKKYEGHWYPEKPLKGSGFRCVHIGEMVDPVVELAAKRSGLAVEDVRANVPEELSVWIDPFEVSYQIGEKGAVKVLYLDDSEGCGAPELDKEIKSSFNPDAQVFVPIGSQDSSLSNSPSPSFGQSPSPTFIPRSAQPITFTTASFAATKFGSTKMKKGGGAASGGGVASSGAGGQQPPQQPRMARSPTNSLLKHKSLSLSMHSLNFITANPAPQSQLSPNAKEFVYNGGGSPSLFFDAADGQGSGTPGPFGGSGAGTCNSSSFDMAQVFGGGANSLFLEKTPFVEGLSYNLNTMQYPSQQFQPVVLAN
# Variants of: B1
# Conditions: with pabp1_human PABPC1, P11940
# pabp1_human PABPC1, P11940, sequence (P11940 whole entry): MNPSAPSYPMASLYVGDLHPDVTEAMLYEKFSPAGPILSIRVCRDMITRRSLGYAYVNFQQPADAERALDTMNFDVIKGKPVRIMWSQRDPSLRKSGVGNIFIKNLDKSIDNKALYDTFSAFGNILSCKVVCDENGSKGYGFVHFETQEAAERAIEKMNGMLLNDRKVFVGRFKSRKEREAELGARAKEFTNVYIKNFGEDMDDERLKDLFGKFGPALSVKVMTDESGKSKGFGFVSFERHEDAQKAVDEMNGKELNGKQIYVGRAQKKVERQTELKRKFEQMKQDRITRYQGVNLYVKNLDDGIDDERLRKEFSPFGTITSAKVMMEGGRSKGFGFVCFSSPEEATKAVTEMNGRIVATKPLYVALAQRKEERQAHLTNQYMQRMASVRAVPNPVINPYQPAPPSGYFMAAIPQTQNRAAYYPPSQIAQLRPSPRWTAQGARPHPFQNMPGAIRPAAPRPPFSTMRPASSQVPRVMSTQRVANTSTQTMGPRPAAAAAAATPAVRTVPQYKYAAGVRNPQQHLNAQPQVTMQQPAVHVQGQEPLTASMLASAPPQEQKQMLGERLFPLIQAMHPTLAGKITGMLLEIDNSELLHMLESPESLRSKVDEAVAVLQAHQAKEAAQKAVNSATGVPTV
row,Variant,effect of a mutation on the interaction
1,MQLEIKVALNFIISYLYNKLPRRRADLFGEELERLLKKKYEGHWYPEKPLKGSGFRCVHIGEMVDPVVELAAKRSGLAVEDVRANVPEELSVWIDPFEVSYQIGEKGAVKVLYLDDSEGCGAPELDKEIKSSFNPDAQVAVPIGSQDSSLSNSPSPSFGQSPSPTFIPRSAQPITFTTASFAATKFGSTKMKKGGGAASGGGVASSGAGGQQPPQQPRMARSPTNSLLKHKSLSLSMHSLNFITANPAPQSQLSPNAKEAVYNGGGSPSLFFDAADGQGSGTPGPFGGSGAGTCNSSSFDMAQVFGGGANSLFLEKTPFVEGLSYNLNTMQYPSQQFQPVVLAN [F140A;F260A],disrupting interaction
